Data: patent publication US20240173425A1, “HUMAN CD33 ANTIBODIES AND GLUCOCORTICOID CONJUGATES” (Eli Lilly and Company, priority 2022, published 2024)

Target: human CD33 on the cell surface of human monocytes / myeloid cells (human) (UniProt P20138)
Test: cell-based or functional assay

Sequence of human CD33 on the cell surface of human monocytes / myeloid cells (human) (P20138 18-364 limits assumed): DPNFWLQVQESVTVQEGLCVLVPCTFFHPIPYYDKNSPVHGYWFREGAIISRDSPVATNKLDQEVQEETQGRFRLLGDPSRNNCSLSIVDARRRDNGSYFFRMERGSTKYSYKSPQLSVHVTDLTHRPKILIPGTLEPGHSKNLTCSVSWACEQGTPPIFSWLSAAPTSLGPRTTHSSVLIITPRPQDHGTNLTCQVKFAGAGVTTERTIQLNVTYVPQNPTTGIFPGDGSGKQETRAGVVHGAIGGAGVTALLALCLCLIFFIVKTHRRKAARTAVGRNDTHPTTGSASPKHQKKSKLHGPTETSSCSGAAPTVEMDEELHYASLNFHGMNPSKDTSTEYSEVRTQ

Gemtuzumab (hIgG4PAA) (antibody)
% Internalization: 50.5%
